Paper PMC4678016

Target: capping protein (CP), purified, as used in pyrene-actin polymerization assays
Assay: pyrene-actin seeded polymerization assay

Kd: 2.9 nM
Substance: CARMIL2-CBR (CP-binding region of human CARMIL2b, Pro-961 to Arg-1072) (from UniProt Q6F5E8-2 961-1072) (domain or fragment)
